Results taken from the RNAGym collection of RNA variant scans (doi:10.7554/elife.80360).

B1: HDV Ribozyme (parent)
chain: GGCCGGCAUGGUCCCAGCCUCCUCGCUGGCGCCGGCUGGGCAACAUUCCGAGGGGACCGUCCCCUCGGUAAUGGCGAAUGGGACCCA

Variants of: B1
Test: self-cleavage, relative activity (ratio to wild type); higher = more cleavage; co-transcriptional

Variant	self-cleavage
C3U G52C	0.546
G73U G81U	0.208
C26A G54C	1
C61A U69C	0.906
C66U U79G	0.453
U20C C24G	0.115
C32A C36G	0.162
C63G C64G	0.692
C44G G73C	0.655
G54U A77G	0.878
A16U U47C	0.72
A16G G54A	0.727
A42U C84G	0.198
G5C G54C	0.158
G35C G74U	0.133
C18G C30U	0.0386
A8C A70G	0.782
G5C G17U	0
C61U C66G	0.529
U47C C63U	1.07
U47C C64A	0.567

Variant	self-cleavage
U23C G53A	0.849
G6A G28A	0.0817
C13U A77C	0.293
G5C A56G	0.237
G68C U79A	0.705
G68C G80A	0.421
G35A C84G	0.45
C48G G81C	0.185
C48A C61A	1.02
U47C U65A	0.923
A45G C63U	0.956
C7G C58U	0.492
C18G C33G	0.119
G6A C62A	0.543
A71G C75U	0.151
C26G G39U	0.324
C3U U60G	0.591
G34A C61U	0.213
C36U C86G	0.703
C30A U72A	0.123
U69A C75A	0.119

Variant	self-cleavage
C7A C14A	0.123
C64A U79G	0.684
C24A G81U	0.185
A56C A87U	0.986
C22G C41G	0.0831
G1A A16G	0.302
G6C U69A	0.208
G39C G67C	0.232
U60A C85G	0.673
U20A G35A	0.158
C44A C63A	0.882
G17A C30A	0.651
C64U G74U	0.569
C15G G38U	0
G31U C44G	0.0665
C36G G52C	0.166
G34U G54C	0.0468
G28A C58G	0.0369
G1A A77C	0.0405
C64G G74A	0.17
G53U G76A	1.09

Variant	self-cleavage
C30A G59U	0.637
C15A C36G	0.145
C24A G34C	0.0852
G34A C63A	0.231
C21G G76C	0
G81U G82C	0.297
C13G U23G	0
U23A C26A	1.23
G29C	0.1
G17U C62G	0.492
A8C G17A	0.831
C4G U72C	0.0426
U47C G53A	0.87
C64U G80A	0.397
G52C C84U	0.537
C44U U79G	0.727
G38A G82C	0.262
G5C C86G	0.113
C18U A45U	0.361
G35A C48A	0.659
